The record followed here is patent US20110034673A1 (Kyowa Kirin, published 2011).

The target in test [1] is bovine serum albumin (BSA) (bovine, UniProt P02769 25-607). Nature of the test: binding ELISA.
Another test deals with T1, mouse HB-EGF (mouse, UniProt Q06186 63-148, limits assumed).
T1 sequence (looked up): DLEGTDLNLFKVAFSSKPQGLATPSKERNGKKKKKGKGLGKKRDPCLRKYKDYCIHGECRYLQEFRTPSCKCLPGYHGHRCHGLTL
The test is described as follows: not described.

For test [2], the target named is T2, recombinant secretory human HB-EGF manufactured by R & D System (catalogue number 259-HE/CF) (human, UniProt Q99075 63-148).
T2 construct: also called recombinant human HB-EGF; secretory HB-EGF
The test is described as follows: SPR (Biacore T-100), HB-EGF immobilized on CM5 chip, antibody in flow. How it is done: (§1) In order to analyze binding activities of a mouse antibody KM3566 and the chimeric antibody KM3966 for human HB-EGF in reaction kinetics, the binding activity measurement was carried out using Biacore. All of the following operations were carried out using Biacore T-100 (manufactured by Biacore). Human HB-EGF (manufactured by R & D) prepared into 5 μg/ml using HBS-EP Buffer (manufactured by Biacore) was immobilized onto a CM 5 sensor chip (manufactured by Biacore) to a level of 80 RU (resonance unit) by an amine coupling method. Thereafter, each antibody diluted 5-fold from 9 nmol/l was let flow on the chip at a rate of 10 μl/min, and by analyzing the sensor-gram at each concentration, the association rate constant and dissociation rate constant of each antibody for human HB-EGF were calculated.
It was confirmed based on the results that both antibodies almost the same binding activity for human HB-EGF.
(Surface plasmon resonance follows binding to a sensor surface in real time, without labels.)

The target in test [3] is T2, recombinant secretory human HB-EGF …. Nature of the test: SPR (BIACORE T100), HB-EGF immobilized, antibody in flow. Here is the method: as §1
In order to reaction-kinetically analyze binding activity of the anti-HB-EGF humanized antibodies for human HB-EGF, it was measured in the same manner as in Example 7(2) using BIACORE T100 (manufactured by BIACORE).
As a result, human HB-EGF binding activity of the anti-HB-EGF humanized antibody HV0LV0 in which the CDRs of anti-HB-EGF chimeric antibody KM3966 were simply transplanted into human framework was reduced close to about ½ of that of the anti-HB-EGF chimeric antibody KM3966, but the binding activity of the anti-HB-EGF humanized antibody HV7LV0 in which amino acid modification was added to the H chain alone and the anti-HB-EGF humanized antibody HV7LV5 in which amino acid modification was added to the H chain and L chain was increased to almost the same level of the anti-HB-EGF chimeric antibody KM3966.

Test [4] shares this target. Nature of the test: SPR (BIACORE T100), HB-EGF immobilized. Here is the method: as §1
In order to reaction-kinetically analyze binding activity of the anti-HB-EGF humanized antibodies for human HB-EGF, it was measured in the same manner as in Example 7(2) using BIACORE T100 (manufactured by BIACORE). […]

In general, kon refers to the rate constant with which the complex forms.

T2 sequence (Q99075 63-148 limits assumed): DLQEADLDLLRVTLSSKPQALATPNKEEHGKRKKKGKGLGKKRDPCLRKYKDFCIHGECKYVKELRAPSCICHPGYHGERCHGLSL
bovine serum albumin (BSA), sequence (P02769 25-607 limits assumed): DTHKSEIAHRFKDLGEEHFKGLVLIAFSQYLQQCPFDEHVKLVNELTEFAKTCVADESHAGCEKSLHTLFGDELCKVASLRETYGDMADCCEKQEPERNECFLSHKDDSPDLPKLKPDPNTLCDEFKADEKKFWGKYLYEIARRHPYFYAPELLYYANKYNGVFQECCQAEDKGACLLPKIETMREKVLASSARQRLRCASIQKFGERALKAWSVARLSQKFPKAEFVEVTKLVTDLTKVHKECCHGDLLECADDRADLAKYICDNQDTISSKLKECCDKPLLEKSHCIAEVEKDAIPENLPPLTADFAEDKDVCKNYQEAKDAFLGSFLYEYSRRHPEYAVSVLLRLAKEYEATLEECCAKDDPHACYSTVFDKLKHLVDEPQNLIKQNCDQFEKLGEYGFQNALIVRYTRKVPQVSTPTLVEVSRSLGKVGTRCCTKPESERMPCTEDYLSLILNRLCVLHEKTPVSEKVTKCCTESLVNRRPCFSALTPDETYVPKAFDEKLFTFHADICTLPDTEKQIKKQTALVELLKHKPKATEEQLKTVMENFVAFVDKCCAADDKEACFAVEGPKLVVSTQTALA

B1: anti-HB-EGF monoclonal antibody KM3566 (antibody, V domains shown)
VH: QVQLQQSGTELARPGASVKLSCKASGYTFRTYGITWVKQRTGQGLEWIGEIFPGSGNTYYNEKFKGKASLTADKSSSTAYMQLSSLTSEDSAVYFCARESFSDGYYGYFDYWGQGTTLTVSS
VL: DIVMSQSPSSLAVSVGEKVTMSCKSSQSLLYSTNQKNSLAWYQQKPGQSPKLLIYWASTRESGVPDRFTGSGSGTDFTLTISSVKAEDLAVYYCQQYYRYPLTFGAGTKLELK
notes: also called anti-HB-EGF mouse antibody KM3566; monoclonal antibody produced by hybridoma KM3566 (FERM BP-10490)
For B1, the results for the binding result (in test [1]; with mouse HB-EGF) were “no binding (tested: diluted stepwise from 10 µg/ml)” and “no binding”, respectively. The kon in test [2] is 270000 M⁻¹ s⁻¹.

B2: anti-HB-EGF chimeric antibody KM3966 (antibody, V domains shown)
VH: QVQLQQSGTELARPGASVKLSCKASGYTFRTYGITWVKQRTGQGLEWIGEIFPGSGNTYYNEKFKGKASLTADKSSSTAYMQLSSLTSEDSAVYFCARESFSDGYYGYFDYWGQGTTLTVSS
VL: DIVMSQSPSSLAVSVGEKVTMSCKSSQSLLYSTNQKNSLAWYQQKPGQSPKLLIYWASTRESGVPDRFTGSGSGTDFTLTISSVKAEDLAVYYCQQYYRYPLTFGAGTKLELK
notes: Human chimeric IgG class antibody made with the vector pKANTEX93 (WO 97/10354); also called human chimeric antibody KM3966; anti-HB-EGF monoclonal antibody KM3966
As for B2, in the test with mouse HB-EGF, the binding result is “no binding”. Besides, the kon in test [2] is 240000 M⁻¹ s⁻¹; in test [3] it was 187000 M⁻¹ s⁻¹.

B3: anti-HB-EGF humanized antibody HV7LV0 (antibody, V domains shown)
VH: QVQLVQSGAEVKKPGASVKLSCKASGYTFRTYGITWVRQAPGQGLEWIGEIFPGSGNTYYNEKFKGRATLTADKSTSTAYMELSSLRSEDTAVYFCARESFSDGYYGYFDYWGQGTLLTVSS
VL: DIVMTQSPDSLAVSLGERATINCKSSQSLLYSTNQKNSLAWYQQKPGQPPKLLIYWASTRESGVPDRFSGSGSGTDFTLTISSLQAEDVAVYYCQQYYRYPLTFGQGTKLEIK
notes: Whole humanized antibody from pKANTEX93
B3: the kon in test [3] was 174000 M⁻¹ s⁻¹.

B4: anti-HB-EGF humanized antibody HV7LV5 (antibody, V domains shown)
VH: QVQLVQSGAEVKKPGASVKLSCKASGYTFRTYGITWVRQAPGQGLEWIGEIFPGSGNTYYNEKFKGRATLTADKSTSTAYMELSSLRSEDTAVYFCARESFSDGYYGYFDYWGQGTLLTVSS
VL: DIVMTQSPDSLAVSVGERVTMNCKSSQSLLYSTNQKNSLAWYQQKPGQSPKLLIYWASTRESGVPDRFSGSGSGTDFTLTISSVQAEDVAVYYCQQYYRYPLTFGQGTKLEIK
notes: as for B3
For the molecule B4, the kon in test [3] amounted to 170000 M⁻¹ s⁻¹.

B5: anti-HB-EGF humanized antibody HV0LV0 (antibody, V domains shown)
VH: QVQLVQSGAEVKKPGASVKVSCKASGYTFTTYGITWVRQAPGQGLEWMGEIFPGSGNTYYNEKFKGRVTITADKSTSTAYMELSSLRSEDTAVYYCARESFSDGYYGYFDYWGQGTLVTVSS
VL: DIVMTQSPDSLAVSLGERATINCKSSQSLLYSTNQKNSLAWYQQKPGQPPKLLIYWASTRESGVPDRFSGSGSGTDFTLTISSLQAEDVAVYYCQQYYRYPLTFGQGTKLEIK
notes: Whole humanized antibody expressed from pKANTEX93
For the molecule B5, the “human HB-EGF binding activity relative to KM3966” value in test [4] was ~0.5 fold of KM3966. Further, the on-rate (kon) in test [3] stood at 104000 M⁻¹ s⁻¹.
